From the supplement of paper PMC10567573

B1: FAM164A (parent)
chain: YDPDYIQCPYCQRRFNENAADRHI
B2: CHMP4C (parent)
chain: TNIRLPNVPSSSLPAQPNRKPGMS
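Further: lentivirally expressed fusions sorted by FACS into six bins by GFP to DsRed ratio, PSI derived from sequencing read proportions per bin multiplied by bin number.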

Variants of: B1
Experiment: protein stability index of a GFP-peptide fusion (GPS, HEK-293T) (PSI 1-6); higher = more stable
Conditions: c terminus: a fixed tail appended
With YDPDYIQCPYCQRRFNENGADRHI the protein stability index was 4.41. Variant YDPDYIQCPYCQRRFNENAADPHI has a protein stability index of 4.29. YDPDYIQCPYCQRRFNENAADLHI gave a protein stability index of 4.08. Variant YDPDYIQCPYCQRRFNENAADHHI has a protein stability index of 4.46. YDPDYIQCPYCQRRFNENAADEHI gave a protein stability index of 4.47. For YDPDYIQCPYCQRRFNENAADDHI, the protein stability index was 4.57. YDPDYIQCPYCQRRFNENAADWHI showed a protein stability index of 3.15. With YDPDYIQCPYCQRRFNENAADYHI the protein stability index was 3.81. YDPDYIQCPYCQRRFNENAADCHI gave a protein stability index of 4.43. For YDPDYIQCPYCQRRFNENAADIHI, the protein stability index was 4.03. YDPDYIQCPYCQRRFNENAADGHI gave a protein stability index of 4.24. With YDPDYIQCPYCQRRFNENAADKHI the protein stability index was 4.51. Work on YDPDYIQCPYCQRRFNENAADMHI yielded a protein stability index of 4.48. Work on YDPDYIQCPYCQRRFNENAADTHI yielded a protein stability index of 4.02. Work on YDPDYIQCPYCQRRFNENAADSHI yielded a protein stability index of 4.03. With YDPDYIQCPYCQRRFNENAADFHI the protein stability index was 3.26. YDPDYIQCPYCQRRFNENAADAHI showed a protein stability index of 4.49. Variant YDPDYIQCPYCQRRFNENAADNHI has a protein stability index of 4.29. Variant YDPDYIQCPYCQRRFNENAADVHI has a protein stability index of 4.17. Variant YDPDYIQCPYCQRRFNENAADQHI has a protein stability index of 4.59. For YDPDYIQCPYCQRRFNENAADRMI, the protein stability index was 4.4. In the case of YDPDYIQCPYCQRRFNENAADRNI, the protein stability index is reported as 4.15. With YDPDYIQCPYCQRRFNENAADRYI the protein stability index was 3.83. For YDPDYIQCPYCQRRFNENAADRVI, the protein stability index was 4.25. For YDPDYIQCPYCQRRFNENAADRKI, the protein stability index was 4.11. YDPDYIQCPYCQRRFNENAADRCI gave a protein stability index of 4.54. YDPDYIQCPYCQRRFNENAADRTI gave a protein stability index of 3.65. YDPDYIQCPYCQRRFNENAADRWI gave a protein stability index of 3.63. In the case of YDPDYIQCPYCQRRFNENAADRGI, the protein stability index is reported as 4.05. YDPDYIQCPYCQRRFNENAADRLI showed a protein stability index of 3.9. In the case of YDPDYIQCPYCQRRFNENAADRFI, the protein stability index is reported as 3.3. YDPDYIQCPYCQRRFNENAADREI showed a protein stability index of 5.08. Variant YDPDYIQCPYCQRRFNENAADRDI has a protein stability index of 4.81. Work on YDPDYIQCPYCQRRFNENAADRII yielded a protein stability index of 4.21. In the case of YDPDYIQCPYCQRRFNENAADRSI, the protein stability index is reported as 3.67. Work on YDPDYIQCPYCQRRFNENAADRAI yielded a protein stability index of 4.4. YDPDYIQCPYCQRRFNENAADRPI gave a protein stability index of 3.86. In the case of YDPDYIQCPYCQRRFNENAADRQI, the protein stability index is reported as 4.22. YDPDYIQCPYCQRRFNENAADRRI gave a protein stability index of 3.96. With YDPDYIQCPYCQRRFNENAADRHL the protein stability index was 3.88. With YDPDYIQCPYCQRRFNENAADRHM the protein stability index was 4.03. YDPDYIQCPYCQRRFNENAADRHH gave a protein stability index of 4.4. YDPDYIQCPYCQRRFNENAADRHE gave a protein stability index of 4.25. For YDPDYIQCPYCQRRFNENAADRHC, the protein stability index was 4.12. In the case of YDPDYIQCPYCQRRFNENAADRHR, the protein stability index is reported as 3.9. Work on YDPDYIQCPYCQRRFNENAADRHD yielded a protein stability index of 4.92. Work on YDPDYIQCPYCQRRFNENAADRHP yielded a protein stability index of 4.25. YDPDYIQCPYCQRRFNENAADRHQ gave a protein stability index of 4.57. For YDPDYIQCPYCQRRFNENAADRHT, the protein stability index was 4.18. In the case of YDPDYIQCPYCQRRFNENAADRHF, the protein stability index is reported as 3.88. YDPDYIQCPYCQRRFNENAADRHY gave a protein stability index of 4.01. Variant YDPDYIQCPYCQRRFNENAADRHW has a protein stability index of 2.89. Variant YDPDYIQCPYCQRRFNENAADRHK has a protein stability index of 4.29. YDPDYIQCPYCQRRFNENAADRHG showed a protein stability index of 4.43. Variant YDPDYIQCPYCQRRFNENAADRHV has a protein stability index of 4.6. In the case of YDPDYIQCPYCQRRFNENAADRHN, the protein stability index is reported as 4.47. Work on YDPDYIQCPYCQRRFNENAADRHS yielded a protein stability index of 4.56. With YDPDYIQCPYCQRRFNENAADRHA the protein stability index was 4.74. In the case of YDPDYIQCPYCQRRFRENAADRHI, the protein stability index is reported as 5.19. Work on YDPDYIQCPYCQRRFVENAADRHI yielded a protein stability index of 4.39. YDPDYIQCPYCQRRFWENAADRHI gave a protein stability index of 4.61. For YDPDYIQCPYCQRRFLENAADRHI, the protein stability index was 4.45. Variant YDPDYIQCPYCQRRFIENAADRHI has a protein stability index of 4.75. With YDPDYIQCPYCQRRFTENAADRHI the protein stability index was 4.48. YDPDYIQCPYCQRRFSENAADRHI showed a protein stability index of 4.56. For YDPDYIQCPYCQRRFPENAADRHI, the protein stability index was 5.53. YDPDYIQCPYCQRRFMENAADRHI showed a protein stability index of 4.54. Work on YDPDYIQCPYCQRRFYENAADRHI yielded a protein stability index of 4.94. Variant YDPDYIQCPYCQRRFHENAADRHI has a protein stability index of 3.8. In the case of YDPDYIQCPYCQRRFQENAADRHI, the protein stability index is reported as 4.56. In the case of YDPDYIQCPYCQRRFKENAADRHI, the protein stability index is reported as 4.8.

Variants of: B2
Experiment: as above
Conditions: c terminus: a fixed tail appended
Variant TDIRLPNVPSSSLPAQPNRKPGMS has a protein stability index of 4.77. Variant TAIRLPNVPSSSLPAQPNRKPGMS has a protein stability index of 4.67. In the case of TCIRLPNVPSSSLPAQPNRKPGMS, the protein stability index is reported as 3.87. Work on TEIRLPNVPSSSLPAQPNRKPGMS yielded a protein stability index of 5.05. ANIRLPNVPSSSLPAQPNRKPGMS showed a protein stability index of 4.63. ENIRLPNVPSSSLPAQPNRKPGMS showed a protein stability index of 3.75. With CNIRLPNVPSSSLPAQPNRKPGMS the protein stability index was 4.14. Work on GNIRLPNVPSSSLPAQPNRKPGMS yielded a protein stability index of 4.8. Variant VNIRLPNVPSSSLPAQPNRKPGMS has a protein stability index of 3.62. SNIRLPNVPSSSLPAQPNRKPGMS showed a protein stability index of 4.4. For LNIRLPNVPSSSLPAQPNRKPGMS, the protein stability index was 3.24. KNIRLPNVPSSSLPAQPNRKPGMS gave a protein stability index of 4.55. Variant RNIRLPNVPSSSLPAQPNRKPGMS has a protein stability index of 4.77. With YNIRLPNVPSSSLPAQPNRKPGMS the protein stability index was 3.71. Variant MNIRLPNVPSSSLPAQPNRKPGMS has a protein stability index of 4.17. PNIRLPNVPSSSLPAQPNRKPGMS showed a protein stability index of 4.8. For QNIRLPNVPSSSLPAQPNRKPGMS, the protein stability index was 4.75. Variant NNIRLPNVPSSSLPAQPNRKPGMS has a protein stability index of 4.82. With DNIRLPNVPSSSLPAQPNRKPGMS the protein stability index was 4.71. With HNIRLPNVPSSSLPAQPNRKPGMS the protein stability index was 4.56. WNIRLPNVPSSSLPAQPNRKPGMS gave a protein stability index of 3.62. FNIRLPNVPSSSLPAQPNRKPGMS gave a protein stability index of 3.6. In the case of INIRLPNVPSSSLPAQPNRKPGMS, the protein stability index is reported as 3.03.
